Measured values as given in patent US20080153130.

Experiments:
[1] = biological target: His6UBI::ElisaC hybrid protein (six histidines, ubiquitin and the C-terminal fragment of UBP1ΔC protease)
[2] = biological target: T1, UBI::KALA hybrid protein substrate (ubiquitin fused to the 18-amino-acid KALA peptide)
T1 chain: DPGDKDGDGYISAAEAMA

B1: UBP1ΔC protease (UBP1 deletion mutant with mutation C at position 754) (protein)
chain: GGDHLNYIVESVSEMTTNFRNNNSLSRWLPRSKFTHLDEEILKRGGFIAGLVNDGNTCFMNSVLQSLASSRELMEFLDNNVIRTYEEIEQNEHNEEGNGQESAQDEATHKKNTRKGGKVYGKHKKKLNRKSSSKEDEEKSQEPDITFSVALRDLLSALNAKYYRDKPYFKTNSLLKAMSKSPRKNILLGYDQEDAQEFFQNILAELESNVKSLNTEKLDTTPVAKSELPDDALVGQLNLGEVGTVYIPTEQIDPNSILHDKSIQNFTPFKLMTPLDGITAERIGCLQCGENGGIRYSVFSGLSLNLPNENIGSTLKLSQLLSDWSKPEIIEGVECNRCALTAAHSHLFGQLKEFEKKPEGSIPEKPINAVKDRVHQIEEVLAKPVIDDEDYKKLHTANMVRKCSKSKQILISRPPPLLSIHINRSVFDPRTYMIRKNNSKVLFKSRLNLAPWCCDINEINLDARLPMSKKEKAAQQDSSEDENIGGEYYTKLHERFEQEFEDSEEEKEYDDAEGNYASHYNHTKDISNYDPLNGEVDGVTSDDEDEYIEETDALGNTIKKRIIEHSDVENENVKDNEELQEIDNVSLDEPKINVEDQLETSSDEEDVIPAPPINYARSFSTVPATPLTYSLRSVIVHYGTHNYGHYIAFRKYRGCWWRISDETVYVVDEAEVLSTPGVFMLFYEYDFDEETGKMKDDLEAILSNNEEDDEKEQEQKGVQEPKESQEQGEGEEQEEGQEQMKFERTEDHRDISGKDVNGSHHHHHH
Q: Which results are given for B1?
A: proteolytic activity (cleavage of ubiquitin from the hybrid substrate, SDS-PAGE image analysis), reference enzyme [1]: the enzyme UBP1ΔC2 is 5-6 times more active than mutant UBP1 AC; proteolytic activity (cleavage of ubiquitin from the hybrid substrate, SDS-PAGE image analysis), reference enzyme [2]: the enzyme UBP1ΔC2 is 5-6 times more active than mutant UBP1 AC

B2: UBP1ΔC2 protease (UBP1 truncated by 98 N-terminal amino acids, mutation C Gln754Leu, six histidine residues at its C-end) (protein)
chain: GGFIAGLVNDGNTCFMNSVLQSLASSRELMEFLDNNVIRTYEEIEQNEHNEEGNGQESAQDEATHKKNTRKGGKVYGKHKKKLNRKSSSKEDEEKSQEPDITFSVALRDLLSALNAKYYRDKPYFKTNSLLKAMSKSPRKNILLGYDQEDAQEFFQNILAELESNVKSLNTEKLDTTPVAKSELPDDALVGQLNLGEVGTVYIPTEQIDPNSILHDKSIQNFTPFKLMTPLDGITAERIGCLQCGENGGIRYSVFSGLSLNLPNENIGSTLKLSQLLSDWSKPEIIEGVECNRCALTAAHSHLFGQLKEFEKKPEGSIPEKPINAVKDRVHQIEEVLAKPVIDDEDYKKLHTANMVRKCSKSKQILISRPPPLLSIHINRSVFDPRTYMIRKNNSKVLFKSRLNLAPWCCDINEINLDARLPMSKKEKAAQQDSSEDENIGGEYYTKLHERFEQEFEDSEEEKEYDDAEGNYASHYNHTKDISNYDPLNGEVDGVTSDDEDEYIEETDALGNTIKKRIIEHSDVENENVKDNEELQEIDNVSLDEPKINVEDQLETSSDEEDVIPAPPINYARSFSTVPATPLTYSLRSVIVHYGTHNYGHYIAFRKYRGCWWRISDETVYVVDEAEVLSTPGVFMLFYEYDFDEETGKMKDDLEAILSNNEEDDEKEQEQKGVQEPKESQEQGEGEEQEEGQEQMKFERTEDHRDISGKDVNGSHHHHHH
Q: Which results are given for B2?
A: preparative digestion of the hybrid protein, then Ni-NTA chromatography and SDS-PAGE [1]: High purity ElisaC protein was obtained, cleaved from 6HisUBI; proteolytic activity (cleavage of ubiquitin from the hybrid substrate, SDS-PAGE image analysis), fold over UBP1ΔC [1]: the enzyme UBP1ΔC2 is 5-6 times more active than mutant UBP1 AC; proteolytic activity (cleavage of ubiquitin from the hybrid substrate, SDS-PAGE image analysis), fold over UBP1ΔC [2]: the enzyme UBP1ΔC2 is 5-6 times more active than mutant UBP1 AC
